Laboratory results: PMC4930699 (Cancer research, 2016)

Target: the molecule itself
Assay: cross-linking

B1: Flag-PKM2 K305R (enzyme)
chain: not shown
binding result: binds
